Positions count from the first letter of the chain named.
T1: recombinant human midkine (huMK) (human, UniProt P21741 21-143)
T1 construct: also called human MK; Human MK
T1 sequence (looked up): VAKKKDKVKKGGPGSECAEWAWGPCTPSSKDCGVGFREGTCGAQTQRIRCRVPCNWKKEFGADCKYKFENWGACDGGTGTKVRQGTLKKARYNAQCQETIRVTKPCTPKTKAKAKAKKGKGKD

T2: recombinant murine midkine (muMK) (murine, UniProt P12025 23-140)
T2 construct: also called murine MK; Murine MK
T2 sequence (looked up): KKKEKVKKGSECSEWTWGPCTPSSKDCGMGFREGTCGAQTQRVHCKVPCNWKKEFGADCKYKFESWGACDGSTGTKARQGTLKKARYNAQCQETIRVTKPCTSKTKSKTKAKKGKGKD

B1: IP14 Hv0 Lv4 (antibody, V domains shown)
VH: QVQLQQPGAELVRPGHSVKLSCKASGQSFSSYWMNWVRQRPGQGLEWIGMIHPSDSETILNQKFKDKATLTVDISSNTAYMQLSSPTSEDSAVYFCSSWSAKRGDFWGQGTTLTVSS
VL: EIVLTQSPDFQSVTPKEKVNITCRASESISNNLHWYQQKPHQSPKLLIYYASQSISGVPSRFSGSGSGTDFNLTINSVEAEDAATYYCQQSNSWPLTFGGGTKLEIKR
B2: IP14 Hv0 Lv6 (antibody, V domains shown)
VH: B1 VH
VL: EIVLTQSPSTLSASVGDRVNITCRASESISNNLHWYQQKPHKAPKLLIYYASQSISGVPSRFSGSGSGTEFNLTISSVQPDDFATYYCQQSNSWPLTFGQGTKVEIKR
B3: IP14-H5L2 (antibody, V domains shown)
VH: QVQLVQSGGGLVQPGGSLRLSCAASGQSFSSYWMNWVRQAPGQGLEWIGMIHPSDSETILNQKFKDKATLTVDISKNTAYLQMNSLRAEDTAVYYCSSWSAKRGDFWGQGTLVTVSS
VL: EIVLTQSPATLSLSPGERATLSCRASESISNNLHWYQQKPGQAPRLLIKYASQSISGIPARFSGSGPGTDFTLTISSVEPEDFAVYYCQQSNSWPLTFGGGTKLEIKR
notes: also called Hv5 Lv2
B4: IP14 Hv0 Lv2 (antibody, V domains shown)
VH: B1 VH
VL: B3 VL
B5: IP14-H2L2 (antibody, V domains shown)
VH: QVQLVQSGAEVKKPGASVKVSCKASGQSFSSYWMNWVRQAPGQGLEWIGMIHPSDSETILNQKFKDKATLTVDISTSTAYMELSSLRSEDTAVYYCSSWSAKRGDFWGQGTLVTVSS
VL: B3 VL
notes: also called Hv2 Lv2
B6: IP14 Hv0 Lv3 (antibody, V domains shown)
VH: B1 VH
VL: B3 VL with E1D, K49Y, V78L
B7: IP14-H6L1 (antibody, V domains shown)
VH: B3 VH with Q13K, G16H, Q43K, T71S, S75A, T78S
VL: B3 VL with T20N, G41H, T72N
notes: also called Hv6 Lv1
B8: IP14-H6L2 (antibody, V domains shown)
VH: B3 VH with Q13K, G16H, Q43K, T71S, S75A, T78S
VL: B3 VL
notes: also called hIP14-H6L2; Hv6 Lv2
B9: IP14 Hv0 Lv1 (antibody, V domains shown)
VH: B1 VH
VL: B3 VL with T20N, G41H, T72N
B10: IP14 Hv0 Lv8 (antibody, V domains shown)
VH: B1 VH
VL: B3 VL with E1D, G41H, K49Y, I58V, P67S, G100Q, L104V
B11: IP14 Hv0 Lv7 (antibody, V domains shown)
VH: B1 VH
VL: B3 VL with E1D, T20N, G41H, K49Y, I58V, P67S, T72N, G100Q, L104V
B12: IP14-H5L7 (antibody, V domains shown)
VH: B3 VH
VL: B3 VL with E1D, T20N, G41H, K49Y, I58V, P67S, T72N, G100Q, L104V
notes: also called Hv5 Lv7
B13: IP14-H5L1 (antibody, V domains shown)
VH: B3 VH
VL: B3 VL with T20N, G41H, T72N
notes: also called Hv5 Lv1
B14: IP14-H5L3 (antibody, V domains shown)
VH: B3 VH
VL: B3 VL with E1D, K49Y, V78L
notes: also called hIP14-H5L3; Hv5 Lv3

Target: T1, recombinant human midkine (huMK)
Experiment: ELISA, plate coated with huMK
Description: (§1) The binding specificity and affinity of the humanised anti-MK antibodies to recombinant human MK (huMK) and murine MK (muMK) was assessed by ELISA. ELISA plates (Nunc Immuno MaxiSorp 96 well flat-bottom were coated with 100 uL of 2 ug/mL of either huMK or muMK in 2% BSA/PBS (overnight at room temperature). After washing, blocking (1 h at 37° C.), and washing again, the humanised anti-MK and chimeric antibodies described in Example 1 were analysed for binding to huMK or muMK at concentrations ranging between 3 μg/ml and 0.00004 μg/ml in 2% BSA/PBS (1 h at 37° C.). After washing, the binding of antibody was detected with goat anti-mouse IgG (Fab specific)-HRP conjugate (Sigma, Cat. No. A9917) and SigmaFast OPD substrate (Sigma, Cat. No. P9187). The reaction was stopped with 3 M HCl, absorbance read at 490 nm on a Dynex Technologies MRX TC II plate reader and the binding curves plotted. Binding affinity data for the humanised anti-MK antibodies to huMK and muMK are presented in Table 6 and Table 7 respectively, and in FIG. 3.

EC50 | Binder
0.108 nM | B1
0.132 nM | B2
0.069 nM | B3
0.095 nM | B4
0.1 nM | B5
0.09 nM | B6
0.097 nM | B7
0.041 nM | B8
0.093 nM | B9
0.08 nM | B10
0.092 nM | B11
0.067 nM | B12
0.062 nM | B13
0.068 nM | B14

Target: T2, recombinant murine midkine (muMK)
Experiment: ELISA, plate coated with muMK
Description: as §1

EC50 | Binder
0.054 nM | B3
0.087 nM | B5
0.032 nM | B7
0.072 nM | B8
0.059 nM | B12
0.052 nM | B13
0.05 nM | B14

Reference: US20170240628A1 (CELLMID, published 2017)
